Source: US20250382359A1 (BYOMASS, published 2025)

T1: Human GDF15 Fc (human, UniProt Q99988 195-308, limits assumed, biotinylated (EZ-Link Sulfo-NHS-Biotinylation Kit) in the SPR assay)
T1 construct: also called human GDF15-Fc fusion; biotinylated Human GDF15 Fc; not shown: Fc part
T1 sequence: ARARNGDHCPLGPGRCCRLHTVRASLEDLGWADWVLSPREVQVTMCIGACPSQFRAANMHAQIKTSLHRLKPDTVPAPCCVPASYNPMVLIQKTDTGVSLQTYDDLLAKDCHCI

T2: GDNF (UniProt P39905 78-211)
T2 sequence (looked up): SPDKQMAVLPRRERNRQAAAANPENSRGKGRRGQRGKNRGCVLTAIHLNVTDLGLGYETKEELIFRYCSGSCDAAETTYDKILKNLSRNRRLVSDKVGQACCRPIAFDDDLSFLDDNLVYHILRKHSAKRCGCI

T3: Human Activin B (human, UniProt P09529 293-407)
T3 sequence (looked up): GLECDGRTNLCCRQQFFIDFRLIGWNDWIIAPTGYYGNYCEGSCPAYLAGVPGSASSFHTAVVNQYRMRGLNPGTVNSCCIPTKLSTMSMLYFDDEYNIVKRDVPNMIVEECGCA

T4: Human BMP9 (human, UniProt Q9UK05 320-429)
T4 sequence (looked up): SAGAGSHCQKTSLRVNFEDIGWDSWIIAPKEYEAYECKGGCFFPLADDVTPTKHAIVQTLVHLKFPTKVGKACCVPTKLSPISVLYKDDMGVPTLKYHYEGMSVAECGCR

T5: Human BMP10 (human, UniProt O95393 317-424)
T5 sequence (looked up): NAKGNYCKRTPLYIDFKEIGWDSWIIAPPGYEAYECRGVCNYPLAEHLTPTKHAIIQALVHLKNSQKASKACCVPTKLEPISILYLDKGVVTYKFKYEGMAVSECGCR

T6: Human Activin A Fc (human, UniProt P08476 311-426)
T6 construct: not shown: Fc part
T6 sequence (looked up): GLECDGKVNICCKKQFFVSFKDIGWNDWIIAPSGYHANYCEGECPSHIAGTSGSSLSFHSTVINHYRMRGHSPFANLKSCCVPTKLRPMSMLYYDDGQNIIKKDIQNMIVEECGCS

T7: GDF15 (ligand used in the GFRAL/RET cell assays) (UniProt Q99988 197-308, limits assumed)
T7 sequence (looked up): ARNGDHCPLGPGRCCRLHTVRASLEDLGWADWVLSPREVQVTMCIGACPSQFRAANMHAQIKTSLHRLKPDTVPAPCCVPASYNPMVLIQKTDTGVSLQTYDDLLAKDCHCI

T8: GDF10 (UniProt P55107 369-478)
T8 sequence (looked up): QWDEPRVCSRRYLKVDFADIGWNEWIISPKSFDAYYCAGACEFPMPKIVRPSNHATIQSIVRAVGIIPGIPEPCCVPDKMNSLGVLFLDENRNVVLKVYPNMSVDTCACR


Legend:
[1] = biological target: T1, Human GDF15 Fc; assay: BLI Octet; IgG on sensor, 100 nM antigen (avid)
Experimental: Briefly, ForteBio affinity measurements were performed by loading IgGs on-line onto AHC sensors. Sensors were equilibrated off-line in assay buffer for 30 min and then monitored on-line for 60 seconds for baseline establishment. Sensors with loaded IgGs were exposed to 100 nM antigen for 3 minutes, and afterwards were transferred to assay buffer for 3 min for off-rate measurement. All kinetics were analyzed using the 1:1 binding model.

[2] = biological target: T9, GDF11 (UniProt O95390 299-407); assay: BLI Octet; IgG on sensor
T9 construct: Also used as ligand in the Activin 2B receptor/SMAD reporter assay
T9 sequence (O95390 299-407 limits assumed): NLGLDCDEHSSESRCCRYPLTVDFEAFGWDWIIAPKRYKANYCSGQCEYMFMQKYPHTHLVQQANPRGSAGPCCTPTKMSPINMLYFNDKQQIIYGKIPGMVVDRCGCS

[3] = biological target: T2, GDNF; assay: BLI Octet; IgG on sensor
[4] = biological target: T3, Human Activin B; assay: BLI Octet; IgG on sensor
[5] = biological target: GDF8 (UniProt O14793 267-375); assay: BLI Octet; IgG on sensor
[6] = biological target: T4, Human BMP9; assay: BLI Octet; IgG on sensor, 100 nM antigen (avid)
[7] = biological target: T5, Human BMP10; assay: BLI Octet; IgG on sensor, 100 nM antigen (avid)
[8] = biological target: T6, Human Activin A Fc; assay: BLI Octet; IgG on sensor, 100 nM antigen (avid)
[9] = biological target: T7, GDF15 (ligand used in the GFRAL/RET …); assay: cell-based or functional assay
[10] = biological target: T5, Human BMP10; assay: BLI Octet; IgG on sensor
[11] = biological target: T8, GDF10; assay: BLI Octet; IgG on sensor
[12] = biological target: T3, Human Activin B; assay: BLI Octet; IgG on sensor, 100 nM antigen (avid)
[13] = biological target: T4, Human BMP9; assay: BLI Octet; IgG on sensor
[14] = biological target: T6, Human Activin A Fc; assay: BLI Octet; IgG on sensor
[15] = biological target: T2, GDNF; assay: BLI Octet; IgG on sensor, 100 nM antigen (avid)
[16] = biological target: T8, GDF10; assay: BLI Octet; IgG on sensor, 100 nM antigen (avid)

Binder	Kd [1] [nM]	binding result [2]	binding result [3]	binding result [4]	binding result [5]	binding result [6]	binding result [7]	Kd [8] [nM]	GDF15-GFRAL RET pERK IC50 (pM) [9] [pM]	GDF15-GFRAL-RET Luciferase IC50 (pM) [9] [pM]	binding result [10]	binding result [11]	Kd [12] [nM]	binding result [13]	binding result [14]	Kd [15] [nM]	Kd [16] [nM]
GDF15 antibody agent Clone Q, IgG (antibody, V domains shown) VH: QVQLQESGPGLVKPSQTLSLTCTVSGGSISSGGIYWTWIRQHPGKGLEWIGAIAYSGSTYYNPSLKSRVTISVDTSKNQFSLKLSSVTAADTAVYYCARGIEYQHFDYWGQGTLVTVSS VL: not shown	–	no binding (tested: 100 nM)	no binding (tested: 100 nM)	–	no binding (tested: 100 nM)	binds	–	–	–	–	no binding (tested: 100 nM)	no binding (tested: 100 nM)	172	–	–	–	–
GDF15 antibody agent Clone K, IgG (antibody, V domains shown) VH: QVQLVQSGAEVKKPGASVKVSCKASGYTFTNEGISWVRQAPGQGLEWMGWISAYTADTFYAQKLQGRVTMTTDTSTSTAYMELRSLRSDDTAVYYCARTRHDTSGLRFDYWGQGTLVTVSS VL: DIQMTQSPSSVSASVGDRVTITCRASQGIDSWLAWYQQKPGKAPKLLIYAASSLQSGVPSRFSGSGSGTDFTLTISSLQPEDFATYYCQQVHSFPITFGGGTKVEIKR	0.271	no binding (tested: 100 nM)	–	no binding (tested: 100 nM)	no binding (tested: 100 nM)	–	–	–	187	813	no binding (tested: 100 nM)	no binding (tested: 100 nM)	–	no binding (tested: 100 nM)	no binding (tested: 100 nM)	333	–
GDF15 antibody agent Clone M, IgG (antibody, V domains shown) VH: QVQLVQSGAEVKKPGASVKVSCKASGYTFDSYGINWVRQAPGQGLEWMGWISAYSGDTAYAQELQGRVTMTTDTSTSTAYMELRSLRSDDTAVYYCVRDTQYGGSPYWGQGTLVTVSS VL: not shown	0.317	no binding (tested: 100 nM)	–	no binding (tested: 100 nM)	no binding (tested: 100 nM)	–	–	–	88.7	–	no binding (tested: 100 nM)	no binding (tested: 100 nM)	–	no binding (tested: 100 nM)	no binding (tested: 100 nM)	31.4	–
GDF15 antibody agent Clone N, IgG (antibody, V domains shown) VH: QVQLVQSGAEVKKPGASVKVSCKASGYTFTDYGIFWVRQAPGQGLEWMGWITAYSGDTHYAQKLQGRVTMTTDTSTSTAYMELRSLRSDDTAVYYCVRDTQYGGSPYWGQGTLVTVSS VL: not shown	0.336	no binding (tested: 100 nM)	–	no binding (tested: 100 nM)	no binding (tested: 100 nM)	–	–	–	99.7	–	no binding (tested: 100 nM)	no binding (tested: 100 nM)	–	no binding (tested: 100 nM)	no binding (tested: 100 nM)	2.56	–

Other lines, results leading:

Kd [1] [nM]	binding result [2]	binding result [3]	binding result [4]	binding result [5]	binding result [6]	binding result [7]	Kd [8] [nM]	GDF15-GFRAL RET pERK IC50 (pM) [9] [pM]	GDF15-GFRAL-RET Luciferase IC50 (pM) [9] [pM]	binding result [10]	binding result [11]	Kd [12] [nM]	binding result [13]	binding result [14]	Kd [15] [nM]	Kd [16] [nM]	Binder
0.263	no binding (tested: 100 nM)	no binding (tested: 100 nM)	no binding (tested: 100 nM)	no binding (tested: 100 nM)	binds	binds	7.34	102	75	–	–	–	–	–	–	–	GDF15 antibody agent Clone A, IgG (antibody, V domains shown) VH: QVQLQESGPGLVKPSQTLSLTCTVSGGSITSGGSYWSWIRQHPGKGLEWIGAIVYSGSTYYNPSLKSRVTISVDTSKNQFSLKLSSVTAADTAVYYCARGVEYQHFDYWGQGTLVTVSS VL: not shown
0.263	no binding (tested: 100 nM)	no binding (tested: 100 nM)	no binding (tested: 100 nM)	no binding (tested: 100 nM)	binds	–	7.87	50.4	58.7	no binding (tested: 100 nM)	–	–	–	–	–	–	GDF15 antibody agent Clone D, IgG (antibody, V domains shown) VH: QVQLQESGPGLVKPSQTLSLTCTVSGGSINSGGYYWTWIRQHPGKGLEWIGAIYYSGSTVYNPSLKSRVTISVDTSKNQFSLKLSSVTAADTAVYYCARGVEYQHFNEWGQGTLVTVSS VL: not shown
0.254	no binding (tested: 100 nM)	no binding (tested: 100 nM)	–	no binding (tested: 100 nM)	binds	–	6.48	145	39.6	no binding (tested: 100 nM)	–	132	–	–	–	–	GDF15 antibody agent Clone C, IgG (antibody, V domains shown) VH: QVQLQESGPGLVKPSQTLSLTCTVSGGSISSGGYYWSWIRQHPGKGLEWIGAIVYSGHTYYNPSLKSRVTISVDTSKNQFSLKLSSVTAADTAVYYCARGVEYQHFSLWGQGTLVTVSS VL: not shown
0.325	no binding (tested: 100 nM)	–	no binding (tested: 100 nM)	no binding (tested: 100 nM)	–	–	–	13.5	274	no binding (tested: 100 nM)	no binding (tested: 100 nM)	–	no binding (tested: 100 nM)	no binding (tested: 100 nM)	229	–	GDF15 antibody agent Clone L, IgG (antibody, V domains shown) VH: QVQLVQSGAEVKKPGASVKVSCKASGYTFASYDIIWVRQAPGQGLEWMGWISALSGDTVYAQKLQGRVTMTTDTSTSTAYMELRSLRSDDTAVYYCARTRHDTSGIRFDYWGQGTLVTVSS VL: DIQMTQSPSSVSASVGDRVTITCRASQGIDSWLAWYQQKPGKAPKLLIYAASSLQSGVPSRFSGSGSGTDFTLTISSLQPEDFATYYCQQVHSFPITFGGGTKVEIKR
0.256	no binding (tested: 100 nM)	no binding (tested: 100 nM)	no binding (tested: 100 nM)	no binding (tested: 100 nM)	binds	binds	–	66.7	97.1	–	–	–	–	no binding (tested: 100 nM)	–	36.8	GDF15 antibody agent Clone G, IgG (antibody, V domains shown) VH: QVQLVQSGAEVKKPGSSVKVSCKASGGTFQGYAISWARQAPGQGLEWMGGIIPPYATANYAQKFQGRVTITADESTSTAYMELSSLRSEDTAVYYCARGVGELHLDVWGQGTMVTVSS VL: not shown
